IntAct's records for PubMed 17981123

B1: Serine endoprotease DegS (Escherichia coli (strain K12)), P0AEE3 (parent)
chain: MFVKLLRSVAIGLIVGAILLVAMPSLRSLNPLSTPQFDSTDETPASYNLAVRRAAPAVVNVYNRGLNTNSHNQLEIRTLGSGVIMDQRGYIITNKHVINDADQIIVALQDGRVFEALLVGSDSLTDLAVLKINATGGLPTIPINARRVPHIGDVVLAIGNPYNLGQTITQGIISATGRIGLNPTGRQNFLQTDASINHGNSGGALVNSLGELMGINTLSFDKSNDGETPEGIGFAIPFQLATKIMDKLIRDGRVIRGYIGIGGREIAPLHAQGGGIDQLQGIVVNEVSPDGPAANAGIQVNDLIISVDNKPAISALETMDQVAEIRPGSVIPVVVMRDDKQLTLQVTIQEYPATN
partner: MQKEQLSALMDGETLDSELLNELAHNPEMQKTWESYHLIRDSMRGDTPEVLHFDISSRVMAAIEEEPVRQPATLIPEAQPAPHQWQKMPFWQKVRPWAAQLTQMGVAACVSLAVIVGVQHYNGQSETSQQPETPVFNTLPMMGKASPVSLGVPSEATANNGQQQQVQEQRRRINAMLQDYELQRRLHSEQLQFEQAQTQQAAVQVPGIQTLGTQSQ

Variants of: B1
Settings: with rsea_ecoli rseA

Variant	effect of a mutation on the interaction
MFVKLLRSVAIGLIVGAILLVAMPSLRSLNPLSTPQFDSTDETPASYNLAVRRAAPAVVNVYNRGLNTNSHNQLEIRTLGSGVIMDQRGYIITNKHVINDADQIIVALQDGRVFEALLVGSDSLTDLAVLKINATGGLPTIPINARRVPHIGDVVLAIGNPYNLGQTITQGIISATGRIGLNPTGRQNFLQTDASINHGNSGGALVNSLGELMGINTLSFDKSNDGETPEGIGFAIPFQLATKIMDKLIRDGRVIDGYIGIGGREIAPLHAQGGGIDQLQGIVVNEVSPDGPAANAGIQVNDLIISVDNKPAISALETMDQVAEIRPGSVIPVVVMRDDKQLTLQVTIQEYPATN [R256D]	decreasing interaction
MFVKLLRSVAIGLIVGAILLVAMPSLRSLNPLSTPQFDSTDETPASYNLAVRRAAPAVVNVYNRGLNTNSHNQLEIRTLGSGVIMDQRGYIITNKHVINDADQIIVALQDGRVFEALLVGSDSLTDLAVLKINATGGLPTIPINARRVPHIGDVVLAIGNPANLGQTITQGIISATGRIGLNPTGRQNFLQTDASINHGNSGGALVNSLGELMGINTLSFDKSNDGETPEGIGFAIPFQLATKIMDKLIRDGRVIRGYIGIGGREIAPLHAQGGGIDQLQGIVVNEVSPDGPAANAGIQVNDLIISVDNKPAISALETMDQVAEIRPGSVIPVVVMRDDKQLTLQVTIQEYPATN [Y162A]	disrupting interaction
MFVKLLRSVAIGLIVGAILLVAMPSLRSLNPLSTPQFDSTDETPASYNLAVRRAAPAVVNVYNRGLNTNSHNQLEIRTLGSGVIMDQRGYIITNKHVINDADQIIVALQDGRVFEALLVGSDSLTDLAVLKINATGGLPTIPINARRVPHIGDVVLAIGNPYNLGQTITQGIISATGRIGLNPTGRQNFLQTDASINHGNSGGALVNSLGELMGINTLSFDKSNDGETPEGIGFAIPFQLATKIMDKLIRDGRVIRGYIGIGGREIAPLHAQGGGIDQLQGIVVNEVSPDGPAANAGIQVNDLIISVDNKPAISALETMAQVAEIRPGSVIPVVVMRDDKQLTLQVTIQEYPATN [D320A]	increasing interaction
MFVKLLRSVAIGLIVGAILLVAMPSLRSLNPLSTPQFDSTDETPASYNLAVRRAAPAVVNVYNRGLNTNSHNQLEIRTLGSGVIMDQRGYIITNKHVINDADQIIVALQDGRVFEALLVGSDSLTDLAVLKINATGGLPTIPINARRVPHIGDVVLAIGNPFNLGQTITQGIISATGRIGLNPTGRQNFLQTDASINHGNSGGALVNSLGELMGINTLSFDKSNDGETPEGIGFAIPFQLATKIMDKLIRDGRVIRGYIGIGGREIAPLHAQGGGIDQLQGIVVNEVSPDGPAANAGIQVNDLIISVDNKPAISALETMDQVAEIRPGSVIPVVVMRDDKQLTLQVTIQEYPATN [Y162F]	decreasing interaction
MFVKLLRSVAIGLIVGAILLVAMPSLRSLNPLSTPQFDSTDETPASYNLAVRRAAPAVVNVYNRGLNTNSHNQLEIRTLGSGVIMDQRGYIITNKHVINDADQIIVALQDGRVFEALLVGSDSLTDLAVLKINATGGLPTIPINARRVPHIGDVVLAIGNPYNLGQTITQGIISATGRIGLNPTGRQNFLQTDASINHGNSGGALVNSLGELMGINTLSFDKSNDGATPEGIGFAIPFQLATKIMDKLIRDGRVIRGYIGIGGREIAPLHAQGGGIDQLQGIVVNEVSPDGPAANAGIQVNDLIISVDNKPAISALETMDQVAEIRPGSVIPVVVMRDDKQLTLQVTIQEYPATN [E227A]	increasing interaction
MFVKLLRSVAIGLIVGAILLVAMPSLRSLNPLSTPQFDSTDETPASYNLAVRRAAPAVVNVYNRGLNTNSHNQLEIRTLGSGVIMDQRGYIITNKHVINDADQIIVALQDGRVFEALLVGSASLTDLAVLKINATGGLPTIPINARRVPHIGDVVLAIGNPYNLGQTITQGIISATGRIGLNPTGRQNFLQTDASINHGNSGGALVNSLGELMGINTLSFDKSNDGETPEGIGFAIPFQLATKIMDKLIRDGRVIRGYIGIGGREIAPLHAQGGGIDQLQGIVVNEVSPDGPAANAGIQVNDLIISVDNKPAISALETMDQVAEIRPGSVIPVVVMRDDKQLTLQVTIQEYPATN [D122A]	decreasing interaction
MFVKLLRSVAIGLIVGAILLVAMPSLRSLNPLSTPQFDSTDETPASYNLAVRRAAPAVVNVYNRGLNTNSHNQLEIRTLGSGVIMDQRGYIITNKHVINDADQIIVALQDGRVFEALLVGSDSLTDLAVLKINATGGLPTIPINARRVPHIGDVVLAIGNPYNLGQTITQGIISATGAIGLNPTGRQNFLQTDASINHGNSGGALVNSLGELMGINTLSFDKSNDGETPEGIGFAIPFQLATKIMDKLIRDGRVIRGYIGIGGREIAPLHAQGGGIDQLQGIVVNEVSPDGPAANAGIQVNDLIISVDNKPAISALETMDQVAEIRPGSVIPVVVMRDDKQLTLQVTIQEYPATN [R178A]	decreasing interaction
MFVKLLRSVAIGLIVGAILLVAMPSLRSLNPLSTPQFDSTDETPASYNLAVRRAAPAVVNVYNRGLNTNSHNQLEIRTLGSGVIMDQRGYIITNKHVINDADQIIVALQDGRVFEALLVGSDSLTDLAVLKINATGGLPTIPINARRVPHIGDVVLAIGNPYNLGQTITQGIISATGRIGLNPTGRQNFLQTDASINHGNSGGALVNSLGELMGINTLSFDKSNDGETPEGIGFAIPFQLATDIMDKLIRDGRVIRGYIGIGGREIAPLHAQGGGIDQLQGIVVNEVSPDGPAANAGIQVNDLIISVDNKPAISALETMDQVAEIRPGSVIPVVVMRDDKQLTLQVTIQEYPATN [K243D]	increasing interaction
MFVKLLRSVAIGLIVGAILLVAMPSLRSLNPLSTPQFDSTDETPASYNLAVRRAAPAVVNVYNRGLNTNSHNQLEIRTLGSGVIMDQRGYIITNKHVINDADQIIVALQDGRVFEALLVGSDSLTDLAVLKINATGGLPTIPINARRVPHIGDVVLAIGNPYNLGQTITQGIISATGRIGLNPTGRQNFLQTDASINHGNSGGALVNSLGELMGINTLSFDKSNDGETPEGIGFAIPFQLATKIMDKLIRDGRVIAGYIGIGGREIAPLHAQGGGIDQLQGIVVNEVSPDGPAANAGIQVNDLIISVDNKPAISALETMDQVAEIRPGSVIPVVVMRDDKQLTLQVTIQEYPATN [R256A]	increasing interaction
